Measured values taken from EP4778535A1 (Akeso Biopharma Co., Ltd., dated 2026).

Target: T1, human TIGIT-hFc (human, UniProt Q495A1 22-141)
T1 sequence (looked up): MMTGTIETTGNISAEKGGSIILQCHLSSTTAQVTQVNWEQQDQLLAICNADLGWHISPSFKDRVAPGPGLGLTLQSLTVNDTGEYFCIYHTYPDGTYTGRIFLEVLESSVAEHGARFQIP
Assay: indirect ELISA screen of hybridomas with human TIGIT-hFc as antigen

B1: 26B12 (antibody, V domains shown)
VH: EVQLQESGPGLVKPSQSLSLTCTVTGHSFTSDYAWNWIRQFPGNRLEWMGYISYSDSTNYNPSLKSRISITRDTSKNQFFLQMNSVTTEDTATYYCARLDYGNYGGAMDYWGQGTSVTVSS
VL: DIVLTQSHEFMSTSLRDRVSITCKSSQHVSTAVAWYQQKPGQSPKLLIYSASYRYTGVPDRFTGSGSGTDFTFTISSVKAEDLAVYYCQQHYITPWTFGGGTKLEIK
notes: Murine monoclonal antibody from a hybridoma; also called anti-TIGIT antibody 26B12; monoclonal antibody secreted by hybridoma cell line LT019
B1: binds.
